A word on the pKd: it is −log10 of the Kd, conventionally taken in molar units. One may read the koff as a measure of how fast the partners let go of each other. Low values mean slow dissociation, high ones fast dissociation. For orientation: kon means a measure of how fast the partners come together. Read a low kon as slow association.

pKd: −log10 of the molar value.

Kd, koff and kon data for one substance are collected here from patent publication US20260207725A1.

The target in the test is wild-type Pfs48/45 D3 (6C domain), glycosylated (Plasmodium falciparum) (UniProt Q8I6T1).
Sequence of UniProt Q8I6T1 (Q8I6T1 291-428, tags left off): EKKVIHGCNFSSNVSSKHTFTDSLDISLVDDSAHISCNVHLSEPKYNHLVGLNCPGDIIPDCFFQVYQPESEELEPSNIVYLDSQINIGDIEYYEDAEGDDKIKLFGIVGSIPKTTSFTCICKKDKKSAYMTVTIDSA

With “TB31F neutralizing monoclonal antibody (humanized version of mAb 85RF45.1) (from UniProt P0DOY2 1-106)”, the pKd is 8.60, the koff came to 0.00082 s⁻¹ and the kon is 350000 M⁻¹ s⁻¹.
